This is an account of results in patent US20240083986A1 (published 2024).

Experiment [1] addresses T1, Apple (Mal d 1, MyBiosource, Cat #MBS1224919) (Apple, UniProt P43211 2-159, limits assumed).
T1 construct: Bought reagent
T1 sequence (looked up): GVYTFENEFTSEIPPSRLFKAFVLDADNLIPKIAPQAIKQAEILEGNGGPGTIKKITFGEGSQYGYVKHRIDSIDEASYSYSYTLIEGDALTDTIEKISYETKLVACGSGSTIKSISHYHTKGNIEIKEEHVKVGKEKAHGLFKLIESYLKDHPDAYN
In words: SPR, mAb captured via anti-hFc, 25 C. In general terms: Surface plasmon resonance follows binding to a sensor surface in real time, without labels.

Experiment [2] concerns the target T2, Celery (Api g 1, MyBiosource, Cat #MBS1171376) (Celery, UniProt P49372 1-154, limits assumed).
T2 construct: Bought reagent
T2 sequence (looked up): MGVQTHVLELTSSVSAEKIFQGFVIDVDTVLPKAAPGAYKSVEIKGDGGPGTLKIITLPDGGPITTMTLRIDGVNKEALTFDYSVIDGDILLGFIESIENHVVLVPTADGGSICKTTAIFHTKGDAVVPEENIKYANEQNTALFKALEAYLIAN
Description: SPR, mAb captured via anti-hFc, 25 C.

Experiment [3] has as its target T3, Alder (Aln g 1, MyBiosource, Cat #MBS1041484) (Alder, UniProt P38948 2-160, limits assumed).
T3 construct: Bought reagent
T3 sequence (looked up): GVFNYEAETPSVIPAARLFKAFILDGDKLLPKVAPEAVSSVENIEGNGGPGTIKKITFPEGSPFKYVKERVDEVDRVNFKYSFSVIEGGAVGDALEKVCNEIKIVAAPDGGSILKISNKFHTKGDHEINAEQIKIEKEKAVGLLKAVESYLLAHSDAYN
Description: SPR, mAb captured via anti-hFc, 25 C.

Experiment [4] has as its target T4, CHO produced recombinant Bet v 1 containing a S85A mutation with a C-terminal myc-myc hexahistidine tag … (Betula verrucosa (birch)).
T4 chain: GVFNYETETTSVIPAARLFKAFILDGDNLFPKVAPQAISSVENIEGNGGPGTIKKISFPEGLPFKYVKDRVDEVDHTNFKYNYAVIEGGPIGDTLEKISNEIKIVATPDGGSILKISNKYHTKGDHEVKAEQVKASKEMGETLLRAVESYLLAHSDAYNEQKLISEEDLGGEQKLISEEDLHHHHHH
Description: SPR, mAb captured via anti-hFc, 25 C.

Experiment [5] has as its target T5, European Hornbeam (Car b 1 isoform 1A & 1B, MyBiosource, Cat #MBS1200018) (European Hornbeam, UniProt P38949 2-160).
T5 construct: Bought reagent
T5 sequence (looked up): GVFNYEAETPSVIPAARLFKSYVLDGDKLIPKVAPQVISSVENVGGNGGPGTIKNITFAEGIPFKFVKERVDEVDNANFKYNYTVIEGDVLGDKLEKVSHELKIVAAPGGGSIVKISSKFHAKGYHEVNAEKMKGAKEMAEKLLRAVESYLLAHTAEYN
Description: SPR, mAb captured via anti-hFc, 25 C.

In experiment [6] the target is T6, European Hornbeam (Car b 1 isoform 2, MyBiosource, Cat #MBS1043940) (European Hornbeam, UniProt P38950 2-160, limits assumed).
T6 construct: Bought reagent
T6 sequence (looked up): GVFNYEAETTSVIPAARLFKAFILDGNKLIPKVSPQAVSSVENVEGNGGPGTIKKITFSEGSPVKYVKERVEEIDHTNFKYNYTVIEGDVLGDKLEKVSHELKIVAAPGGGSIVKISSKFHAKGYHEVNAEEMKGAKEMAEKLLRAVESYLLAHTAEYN
Description: SPR, mAb captured via anti-hFc, 25 C.

For experiment [7], the target named is T4, CHO produced recombinant Bet v 1 …. In words: SPR, mAb captured via anti-hFc, 37 C.
Experiment [8] deals with T7, natural Bet v 1 (Indoor, Cat #NA-BV1-1) (Betula verrucosa (European white birch, …, UniProt P15494 2-160)).
T7 construct: Bought natural protein purified from birch pollen; also called nBet v 1
T7 sequence: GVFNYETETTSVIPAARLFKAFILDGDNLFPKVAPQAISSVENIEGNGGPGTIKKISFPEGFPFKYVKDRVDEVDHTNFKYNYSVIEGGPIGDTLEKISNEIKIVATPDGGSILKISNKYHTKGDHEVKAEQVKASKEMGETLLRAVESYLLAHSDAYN
Description: SPR Biacore, mAb captured on anti-hFc, 25C.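 Also: rate constants from sensorgrams fitted to a 1:1 model with mass transport limitation, KD and t½ derived from kinetic constants, run in HBS-ET buffer at pH 7.4.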

For experiment [9], the target named is T7, natural Bet v 1 (Indoor, Cat #NA-BV1-1). In words: SPR Biacore, mAb captured on anti-hFc, 37C.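 Also: purified anti-Bet v 1 monoclonal antibodies, HBS-ET running buffer pH 7.4, rate constants from 1:1 model fit with mass transport limitation, KD and t½ calculated from kinetic constants.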
In experiment [10] the target is T8, Celery (Api g 1, MyBiosource, Cat #MBS1171376) (Celery, UniProt P49372 1-154, limits assumed).
T8 construct: Bought reagent
T8 sequence (looked up): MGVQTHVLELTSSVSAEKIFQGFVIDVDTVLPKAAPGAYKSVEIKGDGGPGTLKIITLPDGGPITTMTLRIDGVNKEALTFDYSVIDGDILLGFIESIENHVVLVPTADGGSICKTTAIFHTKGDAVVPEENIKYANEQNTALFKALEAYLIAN
In words: SPR Biacore, 25C.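 Also: binding of related allergens to purified monoclonal anti-Bet v 1 antibodies by surface plasmon resonance in HEPES-buffered saline pH 7.4, kinetics fitted to a 1:1 model with mass transport.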

The target in experiment [11] is T9, Apple (Mal d 1, MyBiosource, Cat #MBS1224919) (Apple, UniProt P43211 2-159, limits assumed).
T9 construct: Bought reagent
T9 sequence (looked up): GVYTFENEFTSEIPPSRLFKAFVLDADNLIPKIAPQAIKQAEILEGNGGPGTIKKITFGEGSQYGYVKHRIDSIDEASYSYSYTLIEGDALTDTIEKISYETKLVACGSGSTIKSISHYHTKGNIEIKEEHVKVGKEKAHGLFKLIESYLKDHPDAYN
In words: SPR Biacore, 25C.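 Also: binding of related allergens to purified monoclonal anti-Bet v 1 antibodies by surface plasmon resonance in HEPES-buffered saline pH 7.4, kinetics fitted to a 1:1 model with mass transport.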

B1: H4H17033P (antibody, human IgG4, V domains shown)
VH: QVQLVQSGAEVKKPGASVKVSCKASGYTFAAHYMHWVRQAPGQGLEWMGWINTYTGGTNYGQKFQGRVTMTRDTSITTAYMELSRLRSDDTAVYYCARDRRNWNFVFEYWGQGTLVTVSS
VL: DIQMTQSPSSLSASVGDRVTISCRASQNIKNYLNWYQQKPGKAPKLLIYEASNLQSGAPSRFSGSGSGTDFTLTISSLEPEDFATYYCQQSFSIPWTFGQGTKVEIK
notes: Fully human antibody with human IgG4 Fc (H4H prefix)
As a reminder, the Kd is the equilibrium constant for the complex coming apart. In general, koff refers to the first-order rate constant of dissociation. A word on the kon: it is the second-order rate constant of association. By t½ is commonly meant how long it takes for the measured level to halve. Take B1: in experiment [1], the “100 nM Analyte Bound (RU)” value amounted to 1 RU and the binding result is “no binding (tested: 100 nM)”. In [2], the “100 nM Analyte Bound (RU)” value came to 39 RU, binding was characterised by a dissociation constant (Kd) of 167 nM, the koff is 0.0791 s⁻¹ and the kon came out at 475000 M⁻¹ s⁻¹. In experiment [2], this molecule came in with a t½ of 0.2 min. Also, in experiment [3], the “100 nM Analyte Bound (RU)” value is 3 RU and the binding result is listed as “no binding (tested: 100 nM)”. For the same molecule, in [4], the “100 nM natural Bet v 1- MMH Bound (RU)” value was 67 RU, the Kd came out at 0.768 nM, the koff amounted to 0.000415 s⁻¹ and the kon was 540000 M⁻¹ s⁻¹. Further, the t½ in experiment [4] came out at 28 min. Moreover, in [5], the “100 nM Analyte Bound (RU)” value turned out to be 0 RU and the binding result is listed as “no binding (tested: 100 nM)”. In experiment [6], the “100 nM Analyte Bound (RU)” value came to 111 RU, binding was put at a Kd of 33.4 nM, the off-rate (koff) worked out at 0.0447 s⁻¹ and the kon was 1.34e+06 M⁻¹ s⁻¹. The molecule further displayed a t½ in experiment [6] of 0.3 min. Also, in experiment [7], the “100 nM natural Bet v 1-MHH Bound (RU)” value was found to be 79 RU, the Kd amounted to 1.34 nM, the koff amounted to 0.00118 s⁻¹ and the kon worked out at 883000 M⁻¹ s⁻¹. For the same molecule, the t½ in [7] came out at 9.8 min.

B2: H4H17045P2 (antibody, human IgG4, V domains shown)
VH: EVQLVESGGGLVQPGVSLRLSCVASGFTFSNYDITWIRQIPGKGLEWVSRISGSGGSTYFADSVKGRFIISRDNSKNTVYMQMNSLRAEDSAVYYCARRDSVLFSMNSWLDPWGQGTLVTVSS
VL: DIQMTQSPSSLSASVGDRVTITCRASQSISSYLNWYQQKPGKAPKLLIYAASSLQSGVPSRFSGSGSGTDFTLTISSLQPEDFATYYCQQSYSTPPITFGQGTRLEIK
notes: as for B1
Take B2: in experiment [1], the “100 nM Analyte Bound (RU)” value was -1 RU. Also, in experiment [2], the “100 nM Analyte Bound (RU)” value was determined as 0 RU and the binding result is recorded as “no binding (tested: 100 nM)”. In experiment [3], the “100 nM Analyte Bound (RU)” value came to 0 RU and the binding result is “no binding (tested: 100 nM)”. Also, in experiment [4], the “100 nM natural Bet v 1- MMH Bound (RU)” value is 60 RU, the Kd stood at 6.23 nM, the koff turned out to be 0.000498 s⁻¹ and the kon was determined as 80000 M⁻¹ s⁻¹. For the same molecule, the t½ in [4] amounted to 23 min. Also, in [5], the “100 nM Analyte Bound (RU)” value was 5 RU and the binding result was “no binding (tested: 100 nM)”. In experiment [6], the “100 nM Analyte Bound (RU)” value was found to be 5 RU and the binding result is listed as “no binding (tested: 100 nM)”. Further, in [7], the “100 nM natural Bet v 1-MHH Bound (RU)” value turned out to be 84 RU, the Kd stood at 14.3 nM, the koff turned out to be 0.00232 s⁻¹ and the kon was found to be 162000 M⁻¹ s⁻¹. Moreover, the t½ in experiment [7] was 5 min.

B3: H4H17067P2 (antibody, human IgG4, V domains shown)
VH: EVQLVQSGAEVKKPGESLKISCSGSGYRFTNYWIAWVRQMPGKGLEWMGLIHPDDSDIRYSPSFQGQVTFSVDKSINTAYLQWSSLKASDTAMYYCTRQDGILWSHNAWFDPWGQGTLVTVSS
VL: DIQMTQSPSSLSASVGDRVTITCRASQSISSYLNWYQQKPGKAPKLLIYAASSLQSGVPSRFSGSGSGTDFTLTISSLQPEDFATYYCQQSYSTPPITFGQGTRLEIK
notes: as for B1
As for B3, the “100 nM Analyte Bound (RU)” value in experiment [1] is -1 RU. In experiment [2], the “100 nM Analyte Bound (RU)” value stood at 0 RU and the binding result is “no binding (tested: 100 nM)”. In [3], the “100 nM Analyte Bound (RU)” value amounted to 2 RU and the binding result is “no binding (tested: 100 nM)”. Besides, in experiment [4], the “100 nM natural Bet v 1- MMH Bound (RU)” value came out at 55 RU, the Kd came out at 11.7 nM, the koff came to 0.00117 s⁻¹ and the kon was 100000 M⁻¹ s⁻¹. Besides, the t½ in experiment [4] stood at 9.9 min. In experiment [5], the “100 nM Analyte Bound (RU)” value was found to be 0 RU and the binding result is “no binding (tested: 100 nM)”. Moreover, in [6], the “100 nM Analyte Bound (RU)” value worked out at 1 RU and the binding result is “no binding (tested: 100 nM)”. In addition, in experiment [7], the “100 nM natural Bet v 1-MHH Bound (RU)” value came to 76 RU, the Kd worked out at 16.9 nM, the koff is 0.00428 s⁻¹ and the on-rate constant (kon) is 253000 M⁻¹ s⁻¹. The t½ in [7] was determined as 2.7 min.

B4: H4H17038P2 (antibody, human IgG4 S228P, kappa, V domains shown)
VH: EVQLVESGGDLVQPGGSLRLSCAASGFTFSSYEMNWVRQAPGKGLEWVSFISDSSSNIYYADSVKGRFTISRDNAKKSLYLQMTSLRAEDTAVYYCAREAIGSTSFDNWGQGTLVTVSS
VL: EIVMTQSPATLSVSPGERATLSCRASQSVSSSLAWYQQKPGQAPRRLIYSASTRATGIPARFSGSGSGTEFTLTISSLQSEDFAIYYCHQYNNWPLTFGGGTKVEIKR
notes: human IgG4 Fc; also called REGN5714; MAB3
As to B4, the “100 nM Analyte Bound (RU)” value in experiment [1] is -1 RU; in [2], -1 RU; in experiment [3] it was 2 RU; in experiment [5] it was 105 RU. Moreover, the binding result in [3] is listed as “no binding (tested: 100 nM)”. Further, the “100 nM natural Bet v 1- MMH Bound (RU)” value in [4] stood at 63 RU. In addition, the Kd was 9.98 nM in [4], 41.4 nM in [5], 50.5 nM in experiment [6] and 35.6 nM in experiment [7]. For the same molecule, the t½ in experiment [4] is 1.8 min; in experiment [5], 1.9 min; in experiment [6], 1.8 min; in [7], 0.39 min. Further, the “100 nM natural Bet v 1-MHH Bound (RU)” value in experiment [7] came out at 56 RU.

B5: H4H17027P (antibody, human IgG4, V domains shown)
VH: EVQLVESGGGLVQPGGSLRLSCAASGFTFRNYAMHWVRQAPGEGLEWVAAIYRNSDSIDYADSVKGRFTISRDNAKNSLYLQMNSLKTEDTALYYCAKDEGFLEYFDSWGQGTLVTVSS
VL: EIVLTQSPGTLSLSPGERASLSCRASQSVSSSFLAWYQQKPGQAPRLLIYGVSSRFIGIPDRFSGGGSGTDFTLTITRLEPEDFAVYYCQQYGRSPWTFGQGTKVEIK
On to B5, for which, in [8], the “100 nM natural Bet v 1 Bound (RU)” value worked out at 48 RU, the dissociation constant (Kd) is 4.32 nM, the koff was determined as 0.00027 s⁻¹ and the kon was determined as 62400 M⁻¹ s⁻¹. This molecule registered a t½ in experiment [8] of 43 min. Also, in experiment [9], the “100 nM natural Bet v 1 Bound (RU)” value amounted to 67 RU, the Kd stood at 9.48 nM, the koff turned out to be 0.00093 s⁻¹ and the kon was 98100 M⁻¹ s⁻¹. In experiment [9], this molecule returned a t½ of 12 min. Besides, the binding result in experiment [10] was “no binding (tested: 100 nM)”. Besides, the binding result in experiment [11] is reported as “no binding (tested: 100 nM)”.
